Like-named read-outs stand apart in the source and are kept apart here.
Tests used:
Assay in all cases: Heat/Cool phage ELISA: phage-displayed VH, 80 C 10 min then 4 C 10 min, captured on coated protein A; signal as % of untreated sample
protein A [1] = target: T1, protein A (UniProt P38507 37-477)
T1 construct: also called Protein A superantigen
Method: (§1) The aggregation-resistance of clones was analyzed by measuring retention of signal after heat incubation in a phage ELISA format (McCafferty et al., 1990; Jespers et al., 2004). Wells of a Nunc Maxisorp Immuno-plate were coated overnight with protein A at a concentration of about 5 μg/ml in phosphate-buffered saline (PBS). The plate was washed once with PBS and blocked with about 4% (w/v) milk powder diluted in PBS (MPBS). Single colonies were picked from agar plates and grown overnight in 2×TY medium (containing about 16 g/L tryptone; about 10 g/L yeast extract; about 5 g/L NaCl, pH 7.0) supplemented with about 15 μg/ml tetracycline shaking at about 30° C. Cells were removed by centrifugation and phages were biotinylated directly in the culture supernatant by adding biotin-PEO₄-N-hydroxysuccinimide (Pierce; about 50 μM final concentration). For heat selection, supernatant was first incubated at about 80° C. for about 10 min and then at about 4° C. for about 10 min. Supernatant was added to the blocked ELISA wells. After three washes with PBS, bound phage particles were detected using an Extravidin-HRP conjugate (Sigma) and 3,3′,5,5′-tetramethylbenzidine (TMB) substrate. Absorbance was calculated by subtracting measurements at 450 and 650 nm.
To identify residues in CDR2 that confer aggregation-resistance on a VH containing protein aspartic acid (D) was substituted for surface-exposed residues within the putative CDR2 of DP47 VH with aspartic acid (positions 50, 52, 52a, 53, 54).

protein A [2] = target: T1, protein A; remark: listed apart in the source
Method: as §1
Single amino acid changes in the CDR1 region of the DP47 VH domain, and combinations thereof, were constructed and tested for aggregation-resistance, as detailed above (see the Materials and Methods section). […] Correctly folded VH were captured by protein A ELISA and the absorbance signal of the treated sample was calculated as a percentage of the untreated sample.

protein A [3] = target: T1, protein A; remark: listed apart in the source
Method: as §1
To identify additional residues in CDR1 that confer aggregation-resistance on VH, surface-exposed residues of DP47 between positions 26 to 35 (numbering according to the Kabat numbering system) were substituted for aspartic acid (D) or glutamic acid (E). Framework residues at positions 39 and 40 were also substituted for aspartic acid (D) or glutamic acid (E). […] Correctly folded VH were captured by protein A ELISA and the absorbance signal of the treated sample was calculated as a percentage of the untreated sample.

B1: DP47 VH A50D (other, name in Kabat numbering)
VH: QVQLLESGGGLVQPGGSLRLSCAASGFTFSSYAMSWVRQAPGKGLEWVSDISGSGGSTYYADSVKGRFTISRDNSKNTLYLQMNSLRAEDTAVYYCAKSYGAFDYWGQGTLVTVSS
Protein A [1]
  Retained binding to protein A (%): 2.9%

B2: DP47 VH S31D (other, name in Kabat numbering)
VH: QVQLLESGGGLVQPGGSLRLSCAASGFTFSDYAMSWVRQAPGKGLEWVSAISGSGGSTYYADSVKGRFTISRDNSKNTLYLQMNSLRAEDTAVYYCAKSYGAFDYWGQGTLVTVSS
Protein A [2]
  Retained binding to protein A: 31%
Protein A [3]
  Retained binding to protein A (%): 21.3%

B3: DP47 VH S52D (other, name in Kabat numbering)
VH: QVQLLESGGGLVQPGGSLRLSCAASGFTFSSYAMSWVRQAPGKGLEWVSAIDGSGGSTYYADSVKGRFTISRDNSKNTLYLQMNSLRAEDTAVYYCAKSYGAFDYWGQGTLVTVSS
Protein A [1]
  Retained binding to protein A (%): 3.9%

B4: DP47 VH Y32E (other, name in Kabat numbering)
VH: QVQLLESGGGLVQPGGSLRLSCAASGFTFSSEAMSWVRQAPGKGLEWVSAISGSGGSTYYADSVKGRFTISRDNSKNTLYLQMNSLRAEDTAVYYCAKSYGAFDYWGQGTLVTVSS
Protein A [2]
  Retained binding to protein A: 41%
Protein A [3]
  Retained binding to protein A (%): 24.8%

B5: DP47 VH S53D (other, name in Kabat numbering)
VH: QVQLLESGGGLVQPGGSLRLSCAASGFTFSSYAMSWVRQAPGKGLEWVSAISGDGGSTYYADSVKGRFTISRDNSKNTLYLQMNSLRAEDTAVYYCAKSYGAFDYWGQGTLVTVSS
Protein A [1]
  Retained binding to protein A (%): 3.8%

B6: DP47 VH G54D (other, name in Kabat numbering)
VH: QVQLLESGGGLVQPGGSLRLSCAASGFTFSSYAMSWVRQAPGKGLEWVSAISGSDGSTYYADSVKGRFTISRDNSKNTLYLQMNSLRAEDTAVYYCAKSYGAFDYWGQGTLVTVSS
Protein A [1]
  Retained binding to protein A (%): 1.3%

— US20160145328A1 (published 2016)
